Assay results taken from PMC3681700 (Molecular Biology of the Cell, 2013).
Read-outs that look alike come from different tables or passages of the source. Blank lines part the entries; values can stand above or below the binder they belong to.

What was measured:
[1] = biological target: T1, Taxol-stabilized microtubules assembled from bovine brain tubulin (bovine, UniProt Q6B856 1-445); test: co-sedimentation
[2] = biological target: T1, Taxol-stabilized microtubules assembled …

Kd [1]: 19 ± 2 nM
B1: MAP65-4 (GFP-MAP65-4) (natural protein, Arabidopsis thaliana, UniProt Q9LZY0 1-677, looked up)
chain: MIRNSTEQFSRIETTCGLLLRQLQEIWNEMGETEDEKDASLADIEKECLSVYKRKVEEASRGKANLLKEIAVGRAEIAAIGSSMGGQEIHSNSRLGENLKEELENVNVQLDGLRKRKAERMIRFNEVIDQLLKLSLQLGNPTDYLKKFAAEETDLSLQRLEELRSQLGELQNEKSKRLEEVECLLKTLNSLCSVLGEDFKGMIRGIHSSLVDSNTRDVSRSTLDKLDMMIVNLREAKLQRMQKVQDLAVSLLELWNLLDTPAEEQKIFHNVTCSIALTESEITEANILSVASIKRVEDEVIRLSKIKITKIKEVILRKRLELEEISRKMHMATEVLKSENFSVEAIESGVKDPEQLLEQIDSEIAKVKEEASSRKEILEKVEKWMSACEEESWLEEYNRDDNRYNAGRGAHLTLKRAEKARLLVNKLPGMVEALTAKVTAWENERGNEFLYDGVRVLSMLGQYKTVWEEKEHEKQRQRDMKKLHGQLITEQEALYGSKPSPNKSGKKPLRTPVNAAMNRKLSLGGAMLHQSLKHEKATLNSKRTKYYDQNATSRRDSALPTLSGRRNSELPGRIRSKNVPVAGKAARSPMLRKPLSPVTSNILNSPEDHHKDAYTTKERILTPKTNEEKKRAVPTTPAASVAMTEATTPFTPAVEKRMDEEDVIVEYSFEEVRAGFC

Kd [1]: 21 ± 2 nM
B2: MAP65-1 (GFP-MAP65-1) (natural protein, Arabidopsis thaliana, UniProt Q9FLP0 1-587, looked up)
chain: MAVTDTESPHLGEITCGTLLEKLQEIWDEVGESDDERDKLLLQIEQECLDVYKRKVEQAAKSRAELLQTLSDANAELSSLTMSLGDKSLVGIPDKSSGTIKEQLAAIAPALEQLWQQKEERVREFSDVQSQIQKICGDIAGGLSNEVPIVDESDLSLKKLDDFQSQLQELQKEKSDRLRKVLEFVSTVHDLCAVLGLDFLSTVTEVHPSLDEDTSVQSKSISNETLSRLAKTVLTLKDDKKQRLQKLQELATQLIDLWNLMDTPDEERELFDHVTCNISSSVDEVTVPGALARDLIEQAEVEVDRLDQLKASRMKEIAFKKQSELEEIYARAHVEVNPESARERIMSLIDSGNVEPTELLADMDSQISKAKEEAFSRKDILDRVEKWMSACEEESWLEDYNRDQNRYSASRGAHLNLKRAEKARILVSKIPAMVDTLVAKTRAWEEEHSMSFAYDGVPLLAMLDEYGMLRQEREEEKRRLREQKKVQEQPHVEQESAFSTRPSPARPVSAKKTVGPRANNGGANGTHNRRLSLNANQNGSRSTAKEAGRRETLNRPAAPTNYVAISKEEAASSPVSGAADHQVPASP

Kd [2]: 41 ± 7 nM
B3: Ase1 (natural protein, yeast, UniProt P50275 1-885, looked up)
chain: METATSSPLPIKSRRNSENSGSTTVIPHMNPSLATPLTVSTMVNQSNSKEFMKLTPVRIRDFGSPLKNVSTNYHFLDSENGKGNTMDNMYRENFILISKDLEKLLENLNVIYQNIGYSNTEIITKEKIIFTTISNSIKQFFEQADEELKRLSAENGIEQDILNNILERINDPSGIKTIPDLYIRNAILLQESKTVPQSPKKPLSLLSKKAALDTAKKFVLGSFLPRLRDYLKSLITLKHLIQSVKENLPGLTEADNEAIAEFPELSTLTAYLLQIENGKGDIGLSMKFIIDNRKDILKGSAFKTINEESVKHMNEVIKIYEEEYERRFKSVLTKKVSISSICEQLGTPLATLIGEDFEQDLRSYGEEENSTSEIPNFHPVDRERMSKIDITLEKLQAIHKERADKKRLLMEQCQKLWTRLKISQEYIKTFMRNNSSLSTESLGRISKEVMRLEAMKKKLIKKLISDSWDKIQELWRTLQYSEESRSKFIIVFEELRNSATTLQEDELLLETCENELKRLEEKLTLYKPILKLISDFESLQEDQEFLERSSKDSSRLLSRNSHKILLTEEKMRKRITRHFPRVINDLRIKLEEADGLFDQPFLFKGKPLSEAIDIQQQEIEAKYPRCRVRMQRSKKGKCGANKENKVIKNTFKATESSIRVPIGLNLNDANITYKTPSKKTIQGLTKNDLSQENSLARHMQGTTKLSSPNRRATRLLAPTVISRNSKGNIERPTLNRNRSSDLSSSPRINHTHGEHAVKPRQLFPIPLNKVDTKGSHIPQLTKEKALELLKRSTGTTGKENVRSPERKSSLEDYAQKLSSPYKEPEHSIYKLSMSPEGKFQLNIQQKDIESGFDDTSMMEDENDKDFITWKNEQVSKLNGFSFTDI
